Test results published in patent US20240052047A1 (Pfizer, published 2024).

Molecular target: human IL27 receptor (IL27RA/gp130 heterodimer) on human cells (human, UniProt Q6UWB1 33-636; P40189 23-918)
Assay: cell-based or functional assay

Chain of human IL27 receptor (IL27RA/gp130 heterodimer) on human cells (Q6UWB1 33-636 limits assumed, chain 1 of 2): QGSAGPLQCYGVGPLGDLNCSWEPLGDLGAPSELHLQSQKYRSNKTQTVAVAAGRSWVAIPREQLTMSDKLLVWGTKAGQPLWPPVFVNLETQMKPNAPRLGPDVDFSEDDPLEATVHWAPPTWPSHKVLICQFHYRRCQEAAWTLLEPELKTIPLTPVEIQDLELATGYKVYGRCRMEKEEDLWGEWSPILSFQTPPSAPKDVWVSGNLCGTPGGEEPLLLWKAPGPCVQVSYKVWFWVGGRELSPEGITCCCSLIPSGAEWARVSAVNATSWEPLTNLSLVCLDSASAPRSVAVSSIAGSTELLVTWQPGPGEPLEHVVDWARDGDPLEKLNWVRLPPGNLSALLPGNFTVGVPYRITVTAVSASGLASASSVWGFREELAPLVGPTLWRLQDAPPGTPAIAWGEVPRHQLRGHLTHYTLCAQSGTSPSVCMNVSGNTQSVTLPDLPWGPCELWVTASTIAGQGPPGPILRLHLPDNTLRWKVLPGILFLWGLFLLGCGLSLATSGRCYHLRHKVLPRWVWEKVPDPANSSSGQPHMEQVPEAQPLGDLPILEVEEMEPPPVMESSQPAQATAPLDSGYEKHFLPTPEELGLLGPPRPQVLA
Chain of human IL27 receptor (IL27RA/gp130 heterodimer) on human cells (P40189 23-918 limits assumed, chain 2 of 2): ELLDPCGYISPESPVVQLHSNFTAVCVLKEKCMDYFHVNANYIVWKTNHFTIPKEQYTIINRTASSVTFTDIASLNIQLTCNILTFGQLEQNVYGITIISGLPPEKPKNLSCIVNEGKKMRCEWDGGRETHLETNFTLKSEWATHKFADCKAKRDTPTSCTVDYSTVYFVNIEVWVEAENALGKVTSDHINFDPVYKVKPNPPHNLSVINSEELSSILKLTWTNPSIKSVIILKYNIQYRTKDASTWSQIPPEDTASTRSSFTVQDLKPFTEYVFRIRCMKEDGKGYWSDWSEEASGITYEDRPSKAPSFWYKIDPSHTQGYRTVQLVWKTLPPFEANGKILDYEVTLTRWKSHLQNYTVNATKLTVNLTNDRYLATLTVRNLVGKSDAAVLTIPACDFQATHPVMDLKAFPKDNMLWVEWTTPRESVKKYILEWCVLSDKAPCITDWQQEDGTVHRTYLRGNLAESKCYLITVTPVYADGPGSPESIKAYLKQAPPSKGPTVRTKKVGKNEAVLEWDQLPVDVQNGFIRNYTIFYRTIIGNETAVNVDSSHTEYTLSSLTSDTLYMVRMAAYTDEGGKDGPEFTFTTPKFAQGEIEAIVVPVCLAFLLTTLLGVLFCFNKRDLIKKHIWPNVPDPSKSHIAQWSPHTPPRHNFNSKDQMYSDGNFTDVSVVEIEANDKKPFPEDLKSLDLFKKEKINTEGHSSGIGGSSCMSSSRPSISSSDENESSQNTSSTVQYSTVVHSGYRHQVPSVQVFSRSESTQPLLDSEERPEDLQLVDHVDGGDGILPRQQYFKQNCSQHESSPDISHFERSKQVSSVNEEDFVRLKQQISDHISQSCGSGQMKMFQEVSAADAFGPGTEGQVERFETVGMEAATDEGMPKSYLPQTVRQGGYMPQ

B1: GBT-IL-27R-4933 (KiH-mFd format IL27RA/gp130 bispecific antibody) (bispecific antibody, human IgG1, kappa)
chain 1: DIQMTQSPSSLSASVGDRVTITCRASQSVSSSYLAWYQQKPGKAPKLLIYGTESRATGVPSRFSGSGSGTDFTLTISSLQPEDFATYYCQQYGGYPTFGGGTKVEIKRTVAAPSVFIFPPSDEQLKSGTASVVCLLNNFYPREAKVQWKVDNALQSGNSQESVTEQDSKDSTYSLSSTLTLSKADYEKHKVYACEVTHQGLSSPVTKSFNRGECDKTHTCPPCPAPEAAGAPSVFLFPPKPKDTLMISRTPEVTCVVVDVSHEDPEVKFNWYVDGVEVHNAKTKPREEQYNSTYRVVSVLTVLHQDWLNGKEYKCKVSNKALPAPIEKTISKAKGQPREPQVYTLPPCREEMTKNQVSLSCAVKGFYPSDIAVEWESNGQPENNYKTTPPVLDSDGSFFLVSKLTVDKSRWQQGNVFSCSVMHEALHNHYTQKSLSLSPGK
chain 2: QVQLVQSGAEVKKPGSSVKVSCKVSGGSISSYYWSWVRQAPGQGLEWIGRIYITGNTNYNPSLKDRVTMTVDTSTSTHYMELSSLRSEDTAVYYCAREGPKLGIFDYWGQGTLVTVSSASTKGPSVFPLAPSSKSTSGGTAALGCLVKDYFPEPVTVSWNSGALTSGVHTFPAVLQSSGLYSLSSVVTVPSSSLGTQTYICNVNHKPSNTKVDKKVEPKSC
heavy: EVQLVESGGGLVQPGGSLRLSCAASGFTFEYFGLQWVRQAPGKGLEWIGYTSSGGNYEYYEETLKGRFTISRDNAKNSLYLQMNSLRAEDTAVYYCARTKTGDYWGQGTLVTVSSASTKGPSVFPLAPSSKSTSGGTAALGCLVKDYFPEPVTVSWNSGALTSGVHTFPAVLQSSGLYSLSSVVTVPSSSLGTQTYICNVNHKPSNTKVDKKVEPKSCDKTHTCPPCPAPEAAGAPSVFLFPPKPKDTLMISRTPEVTCVVVDVSHEDPEVKFNWYVDGVEVHNAKTKPREEQYNSTYRVVSVLTVLHQDWLNGKEYKCKVSNKALPAPIEKTISKAKGQPREPQVCTLPPSREEMTKNQVSLWCLVKGFYPSDIAVEWESNGQPENNYKTTPPVLDSDGSFFLYSKLTVDKSRWQQGNVFSCSVMHEALHNHYTQKSLSLSPGK
light: DIQMTQSPSSLSASVGDRVTITCRASQDIGNSLTWYQQKPGKAPKRVIFGATGLAAGVPSRFSGSGSGTDFTLTISSLQPEDFATYYCLQSKQYPYTFGQGTKLEIKRTVAAPSVFIFPPSDEQLKSGTASVVCLLNNFYPREAKVQWKVDNALQSGNSQESVTEQDSKDSTYSLSSTLTLSKADYEKHKVYACEVTHQGLSSPVTKSFNRGEC
  IDO1 in CD14+ monocytes EC50: 0.015 nM
  PD-L1 in CD14+ monocytes EC50 (human whole blood): 0.006 nM
  pSTAT1 in CD3+ T cells EC50 (human whole blood): 0.233 nM
